Experimental findings from publication PMC10320429 are described below.

This assay addresses HLA-A*11:01 on TAP2-KO HLA class I monoallelic TISI cells (human | human (endogenous in TISI)). As to the kind of experiment: flow cytometry on cells. Background: In flow cytometry, cells or beads pass a laser one at a time.
In the case of VVGAAGVGK [KRAS_G12A epitope peptide …], the ΔHLA (% control) was determined as 218%.
As for ISTRDPLSK, the ΔHLA (% control) was found to be 124%.
To VVVGAGDVGK belongs 195%; to VVGAGDVGK, 181%; to KAISTRDPLSK, 127%.
SSCMGSMNR [TP53_G245S epitope peptide …] displayed a ΔHLA (% control) of 107%.
Regarding VVGACGVGK [KRAS_G12C epitope peptide …], the ΔHLA (% control) is 234%.
As for VVGASGVGK [KRAS_G12S epitope peptide …], the figure is 219%.
